Test results as given in patent US10568950B1, “Peptides, combination of peptides and scaffolds for use in immunotherapeutic treatment of various cancers” (Immatics Biotechnologies GmbH, priority 2015, dated 2020).

Biological target: HLA-A*02 (Homo sapiens, UniProt P04439, D140Y/D185E/D98H/E176V/E277Q/G131W/G231S/I119V/I121R/I166T/I218V/N151K/N90K/P208A/P217A/Q86G/Q94H/R138H/R169H)
Assay: MHC binding assay: UV-ligand exchange, beta2m ELISA (peptide exchange yield)
Conditions: binding to HLA-A*02, β2m ELISA
Description: Candidate peptides for T cell based therapies according to the present invention were further tested for their MHC binding capacity (affinity). The individual peptide-MHC complexes were produced by UV-ligand exchange, where a UV-sensitive peptide is cleaved upon UV-irradiation, and exchanged with the peptide of interest as analyzed. Only peptide candidates that can effectively bind and stabilize the peptide-receptive MHC molecules prevent dissociation of the MHC complexes. To determine the yield of the exchange reaction, an ELISA was performed based on the detection of the light chain (β2m) of stabilized MHC complexes. The assay was performed as generally described in Rodenko et al. (Rodenko et al., 2006).
96 well MAXISorp plates (NUNC) were coated over night with 2 ug/ml streptavidin in PBS at room temperature, washed 4× and blocked for 1 h at 37° C. in 2% BSA containing blocking buffer. […] Peptide-MHC monomers of the UV-exchange reaction were diluted 100 fold in blocking buffer. Samples were incubated for 1 h at 37° C., washed four times, incubated with 2 ug/ml HRP conjugated anti-βm for 1 h at 37° C., washed again and detected with TMB solution that is stopped with […]. Absorption was measured at 450 nm. Candidate peptides that show a high exchange yield (preferably higher than 50%, most preferred higher than 75%) are generally preferred for a generation and production of antibodies or fragments thereof, and/or T cell receptors or fragments thereof, as they show sufficient avidity to the MHC molecules and prevent dissociation of the MHC complexes.

Row | Substance | Peptide exchange (MHC class I binding score, peptide exchange yield)
1 | 1 (PLWGKVFYL; listed as Homo sapiens) [compound 1] | ++ (20%-49% = ++)
2 | 3 (TLLGKQVTL; listed as Homo sapiens) [compound 3] | +++ (50%-75% = +++)
3 | 4 (ELAEIVFKV; listed as Homo sapiens) [compound 4] | +++ (50%-75% = +++)
4 | 5 (SLFGQEVYC; listed as Homo sapiens) [compound 5] | +++ (50%-75% = +++)
5 | 6 (FLDPAQRDL; listed as Homo sapiens) [compound 6] | +++ (50%-75% = +++)
6 | 10 (KTLDVFNIIL; listed as Homo sapiens) [compound 10] | ++ (20%-49% = ++)
7 | 11 (GVLKVFLENV; listed as Homo sapiens) [compound 11] | ++ (20%-49% = ++)
8 | 12 (GLIYEETRGV; listed as Homo sapiens) [compound 12] | ++ (20%-49% = ++)
9 | 13 (VLRDNIQGI; listed as Homo sapiens) [compound 13] | +++ (50%-75% = +++)
10 | 14 (LLDHLSFINKI; listed as Homo sapiens) [compound 14] | ++ (20%-49% = ++)
11 | 16 (HLYNNEEQV; listed as Homo sapiens) [compound 16] | ++ (20%-49% = ++)
12 | 18 (YVLNEEDLQKV; listed as Homo sapiens) [compound 18] | +++ (50%-75% = +++)
13 | 19 (TLLPTVLTL; listed as Homo sapiens) [compound 19] | +++ (50%-75% = +++)
14 | 20 (ALDGHLYAI; listed as Homo sapiens) [compound 20] | +++ (50%-75% = +++)
15 | 21 (SLYHRVLLY; listed as Homo sapiens) [compound 21] | ++++ (>= 75% = ++++)
16 | 22 (MLSDLTLQL; listed as Homo sapiens) [compound 22] | ++++ (>= 75% = ++++)
17 | 23 (AQTVVVIKA; listed as Homo sapiens) [compound 23] | + (<20% = +)
18 | 24 (FLWNGEDSAL; listed as Homo sapiens) [compound 24] | +++ (50%-75% = +++)
19 | 25 (IQADDFRTL; listed as Homo sapiens) [compound 25] | ++ (20%-49% = ++)

Row | Substance | Peptide exchange (MHC class I binding score, peptide exchange yield)
20 | 26 (KVDGVVIQL; listed as Homo sapiens) [compound 26] | +++ (50%-75% = +++)
21 | 27 (KVFGDLDQV; listed as Homo sapiens) [compound 27] | +++ (50%-75% = +++)
22 | 28 (TLYSMDLMKV; listed as Homo sapiens) [compound 28] | +++ (50%-75% = +++)
23 | 29 (TLCNKTFTA; listed as Homo sapiens) [compound 29] | +++ (50%-75% = +++)
24 | 31 (ALSDETKNNWEV; listed as Homo sapiens) [compound 31] | ++++ (>= 75% = ++++)
25 | 32 (ILADEAFFSV; listed as Homo sapiens) [compound 32] | +++ (50%-75% = +++)
26 | 33 (LLLPLLPPLSPSLG; listed as Homo sapiens) [compound 33] | +++ (50%-75% = +++)
27 | 35 (YVLPKLYVKL; listed as Homo sapiens) [compound 35] | ++ (20%-49% = ++)
28 | 36 (KLYGIEIEV; listed as Homo sapiens) [compound 36] | ++++ (>= 75% = ++++)
29 | 37 (ALINDILGELVKL; listed as Homo sapiens) [compound 37] | +++ (50%-75% = +++)
30 | 38 (KMQEDLVTL; listed as Homo sapiens) [compound 38] | +++ (50%-75% = +++)
31 | 39 (ALMAVVSGL; listed as Homo sapiens) [compound 39] | +++ (50%-75% = +++)
32 | 40 (SLLALPQDLQA; listed as Homo sapiens) [compound 40] | +++ (50%-75% = +++)
33 | 41 (FVLPLVVTL; listed as Homo sapiens) [compound 41] | +++ (50%-75% = +++)
34 | 42 (VLSPFILTL; listed as Homo sapiens) [compound 42] | +++ (50%-75% = +++)
35 | 44 (GLLWQIIKV; listed as Homo sapiens) [compound 44] | ++ (20%-49% = ++)
36 | 45 (VLGPTPELV; listed as Homo sapiens) [compound 45] | +++ (50%-75% = +++)
37 | 46 (SLAKHGIVAL; listed as Homo sapiens) [compound 46] | +++ (50%-75% = +++)
38 | 47 (GLYQAQVNL; listed as Homo sapiens) [compound 47] | +++ (50%-75% = +++)

Row | Substance | Peptide exchange (MHC class I binding score, peptide exchange yield)
39 | 48 (TLDHKPVTV; listed as Homo sapiens) [compound 48] | ++ (20%-49% = ++)
40 | 49 (LLDESKLTL; listed as Homo sapiens) [compound 49] | +++ (50%-75% = +++)
41 | 50 (EYALLYHTL; listed as Homo sapiens) [compound 50] | ++ (20%-49% = ++)
42 | 51 (LLLDGDFTL; listed as Homo sapiens) [compound 51] | +++ (50%-75% = +++)
43 | 52 (ELLSSIFFL; listed as Homo sapiens) [compound 52] | +++ (50%-75% = +++)
44 | 53 (SLLSHVIVA; listed as Homo sapiens) [compound 53] | +++ (50%-75% = +++)
45 | 54 (FINPKGNWLL; listed as Homo sapiens) [compound 54] | +++ (50%-75% = +++)
46 | 55 (IASAIVNEL; listed as Homo sapiens) [compound 55] | ++ (20%-49% = ++)
47 | 56 (KILDLTRVL; listed as Homo sapiens) [compound 56] | ++ (20%-49% = ++)
48 | 57 (VLISSTVRL; listed as Homo sapiens) [compound 57] | ++ (20%-49% = ++)
49 | 58 (ALDDSLTSL; listed as Homo sapiens) [compound 58] | ++ (20%-49% = ++)
50 | 59 (ALTKILAEL; listed as Homo sapiens) [compound 59] | +++ (50%-75% = +++)
51 | 60 (FLIDTSASM; listed as Homo sapiens) [compound 60] | ++ (20%-49% = ++)
52 | 61 (HLPDFVKQL; listed as Homo sapiens) [compound 61] | ++ (20%-49% = ++)
53 | 62 (SLFNQEVQI; listed as Homo sapiens) [compound 62] | +++ (50%-75% = +++)
54 | 63 (TLSSERDFAL; listed as Homo sapiens) [compound 63] | + (<20% = +)
55 | 64 (GLSSSSYEL; listed as Homo sapiens) [compound 64] | ++ (20%-49% = ++)
56 | 65 (KLDGICWQV; listed as Homo sapiens) [compound 65] | +++ (50%-75% = +++)
57 | 66 (FITDFYTTV; listed as Homo sapiens) [compound 66] | +++ (50%-75% = +++)
